Laboratory results from PMC7020344, “The eEF2 kinase-induced STAT3 inactivation inhibits lung cancer cell proliferation by phosphorylation of PKM2” (Cell Communication and Signaling : CCS, 2020).
“And” between values parts separate entries of the source, which are not always exact repeats. Identical values can stand only once.

Target: the molecule itself
Test: cross-linking; A549 cells washed with PBS pH 8.0 and treated with BS3 for 1 h at room temperature before lysis in loading buffer; dimers and tetramers by immunoblot; cells with eEF2K depletion, overexpression or A484954

B1: FLAG-PKM2 T129A (enzyme)
chain: not shown
notes: human PKM2 from the vector pWZL-FLAG-PKM2 (Addgene #20585) with the point mutation T129A made by PCR mutagenesis; source: A549 cells expressing it, in cells (cross-linked with BS3 before lysis)
stoichiometry N: 4 and 2
